Reference: the nanobody polyreactivity screen of Harvey et al. (2022)

Test: yeast display, Sf9 membrane polyspecificity reagent, FACS + sequencing; frameworks hold sequencing errors
Outline: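 Using colony PCR, genes from sorted yeast display clones were amplified, then sequenced on MiSeq at 2 × 250 and filtered by CDR length. The clones had been stained with 10% biotinylated, detergent-solubilized Sf9 membrane reagent for 1 hour at 4 °C and sorted by FACS into low and high (top ~1%) gates on anti-HA and streptavidin fluorescence. Polyreactivity labels come from the gate of origin.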

QVQLVESGVGLVQAGGSLRLSCAAYGYTFYRYAMGWYRQAPGKERELVAAINKSGGRTYYADSVKGRFTISRDNAKNTVYLQMNSLKPEDTAVYYCNTPFDYPDNPEYDYWGQGTQVTVSS
polyreactivity (PSR sort gate): high polyreactivity

QVQLVESGGGLVQAGGSLRLSCAASGRTFTEYAMGWYSQAHGKERELVARISIGDSTYYADSVKGRFTISRDNAKNTVYLQMNSLKPEDTAVFYCNAEYSRSYRYDEGYWGQGTQVTVSS
polyreactivity (PSR sort gate): low polyreactivity

QVQLVDSGGGLVQAGGSLRLSCAASGRIFYRYAMGWYRQAPGKERELVATISRGGITNYADSVKGRFTISRDNAKNTVYLEMNSLKPEDTAVYYCNAVYGFRRLFEYEYDYWGQGTQVTVSS
polyreactivity (PSR sort gate): high polyreactivity

QVQLVESGGGLVQAGGSLRLSCAASGSTFYGNAMGWYRQAPGKERELVAAISRGGGSTYYADSVKGRFTISRDNAKNTVYLQMNSLKPEDTAVYYCAATRYLHPWYYPYYYWGQGTQVTVSS
polyreactivity (PSR sort gate): low polyreactivity

QVQLVESGGGLVQAGGSLRLSCAASGSTFVIYAMGWYRQAPGKERELVAAISGRTGSTYYADSVKGRFTISRDNAKNTVYLQMNSLKPEDTAVYYCAAYKRSGLKYGHWGQGTQVTVSS
polyreactivity (PSR sort gate): high polyreactivity

QVQLVESGGGLVQAGGSLRLSCAASGSTFVPYAMGWYRQAPGKERELVAAITWSGGDSTYYADSVKGRFTISRDNAKNTVYLQMNSLKPEDTAVYYCAASYLGRKYDYWGQGTQVTVSS
polyreactivity (PSR sort gate): high polyreactivity

QVQLVESGGGLVQAGGSLRLSCAASGSIFADYAMGWYRQAPGKERELVAAITYTDDRTYYADSVKGRFTISRDNAKNTVYLQMNSLKPEDTAVYYCNRVFTCRYGYRYEYWGQGSQVTVSS
polyreactivity (PSR sort gate): high polyreactivity

QVQLVESGGGLVQAGGSLRLSCAASGITFRWYAMGWYRQAPGKERELVAAISTSGTRTYYADSVKGRFTISRDNAKNTVYLLMNSLKPEDTAVYYCAADYGRQLGRYGFGYWGQGTQVSVSS
polyreactivity (PSR sort gate): high polyreactivity

QVQLVESGGGLVQAGGSLRLSCAASGSIFGPYAMGWYRQAPGKERELVATITTNGGSTYYADSVKGRFTISRDNAKNTVYLQMNSLKPEDTAVYYCATQHTDYVGAATTYNYWGQGTQVTVSS
polyreactivity (PSR sort gate): low polyreactivity

QVQLVESGGGLVQAGGSLRLRCAASGRIFAPYAMGRYRQAPWKERELVAAIDGSGGSTYYADSVKGRFTISRDNAKNTVYLQMNSLKPEDTAVYYCANRGYYRSQRWYGYWGQGTQVTVSS
polyreactivity (PSR sort gate): high polyreactivity

QVQLVESGGGLVQAGGSLRLSCAASGSTFYLYTMGWYIQAPGKERELVAAISPSGGSTRYADSVKGRFTISRDNAKNTVYLQMNSLKPEDTAVYYCAARSTVYPRPHERDYWGQGTQVTVSS
polyreactivity (PSR sort gate): high polyreactivity

QVQLVESGGRLVQAGGSLLLSSAASGRTFGIYAMGWSRQSPGKERELCAAITWSGDSTYYADSVKGRFTISRDNAKNTVYIQMNSLKPEDTAVYYCAADYVGLTSVRYDYWGQGTQVTVSS
polyreactivity (PSR sort gate): low polyreactivity

QVQLVESGGGLVQAGGSLRLSCAASGSTFNTYVMGWYRQAPGKERELVAAISSSGGTTYYADSVKGRFTISRDNAKNTVYLQMNSLKPEDTAVYYCNAVPKYGSRLYRYGYWGQGTQVTVSS
polyreactivity (PSR sort gate): high polyreactivity

QVHLVESGGGLVQAGGSLRLSCAASGSIFAGNAMGLSRQAPGKERELVAGISRSGGSTNYADSVKGRFTISRDNAKNSVYLQMNSLKPEDTAVYYCNTDPYSSAWYNYDYWGLGTQVTVSS
polyreactivity (PSR sort gate): low polyreactivity

QVQLVESGGGLVQAGGSLRLSWAASGFTFTPYAMGWYRPAPGKEREFVAAISQRGTSTFYADSVKGRFTISRDNAKHTVYLQMNSLKPEDTAVYYCAKPYRQYTSAYYNTYNYWGQGTEVTVSS
polyreactivity (PSR sort gate): high polyreactivity

QVQLVESGGGLVQAGGSLRLSCAASGRTFDYNAMGWYRQAPGKERELVAAISSSGGSTYYADSVKGRFTISRDNAKNTVYLQMNSLKAEDTAVYYCATLYPRKSIYYYWGQGTQVTVSS
polyreactivity (PSR sort gate): high polyreactivity

QVQLVESGGGLVQAGGSLRLSCAASGFTYRWYAMGWYRQAPGKETELVAAISWDGGSTYYADSVKGRFTISRDNAKNTVYLQMNSLKPEDTAVYFCATVKSLRYWWQNEYGYWGQGTQVTVSS
polyreactivity (PSR sort gate): high polyreactivity

QVQLVESGGGLVQAGGSLRLSCAASGSTFVYYAKGWYRQAPGKEREFVAAISISTGSTYYADSVKGRFTISRDNAKNTVYLQMNSLKPEDTAVYYCAVDWFLGGYDDLDYWGQGTQVTVSS
polyreactivity (PSR sort gate): low polyreactivity

QVQLVESGGGLVQAGGSLRLSCAASGIIFANYAMGWYRQAPGKERELVAAITYSGGGTYYADSVKGRFTISRDNAKNTVYLQMNSLKPEDTAVYYSAAEYFYRWYYFPYGYWGQGTQVTVSS
polyreactivity (PSR sort gate): high polyreactivity

QVQHVESGGGLVQAGGSLRLSCAASGFTFGVNAMGWYRQAPGKERELVAVITSGGNTYYADSVKGRYTISRDNAKNTVYLQMNSLKPEDTAVYYCAADLSYTSYATRYQGDYWGQGTQVTVSS
polyreactivity (PSR sort gate): low polyreactivity

QVQHVESGGGLVQAGGSLRLSCAASGITFVDNAMGWYRQAPGKEREWVAVISSSGGSTYYADSVKGRFTISRDNAKNSVYLQMNSLKPEDTAVYYCAARNRFYRRPYDYWGQGTQVTVSS
polyreactivity (PSR sort gate): high polyreactivity

QVQLVESGGGLVQAGGSLRLSCAASGRIFYTYAMGWYRQAPGKERELVAAISRSGVSTYYADSVKGRFTISRDTAKNTVYLQMNSLKPEDTAVYYCAARWRSGFTSGDYWGQGTQVTVSS
polyreactivity (PSR sort gate): low polyreactivity

QVQLVESGGGLVQAGGSLRLSCAASGRIFPRYAMGWYRQAPGKERQLVAAITSGDSTHYADSVKGRFTISRDNAKNTVYLQMNSLKPEDTAVYYCAAKYPRYGRHAYGYWGQGTQVTVSS
polyreactivity (PSR sort gate): high polyreactivity

QDQIVETGGGLVQAGCSLRLSCAASGSIYYNSMGWYRTAHAKETELVASISTGDSTDYADSVKGRFTISRDYAKYTVYLQMNSLKPEDTAVYYCKAVASQHDEFDYWGQGTQVTVSS
polyreactivity (PSR sort gate): low polyreactivity

QVHLVESGGGLVQAGGSLRLSCAASGSTFFYAMGWYRQAPRKERELVAAISWIDSLTYYADSVKGRFTISRDNEKITVYLQMNILKAEDTAFYYCAAEGQNEGYDYWGQGSQVTVSS
polyreactivity (PSR sort gate): high polyreactivity

QVQLVESGGGLVQAGGSLRLSCAASGSTFVKYVMGRYRQAPGKERELVAAISRSSVRTYYADSVKGRFTISRDNAKNTVYLQMNSLKPEDTAVYYCAVVLSTYSYADYDYWGQGTLVTVSS
polyreactivity (PSR sort gate): high polyreactivity

QVQLVESGGGLVQAGGSLRLSCAASGSIFDVYTRGWYRQAPGKQRELVAAINTGGGSTYYADSEKGRFTISRDIAKNTVYLQMNSLKPEDTAVYYCAASVYHYGPLYYWGQVTQVTVSS
polyreactivity (PSR sort gate): low polyreactivity

QVHLVESGGGLVQAGGSLRLSCAASGRTFYDYAMGWYRQAPGKERELVAAITYSGGSTFYADSVKGRFTISRDNAKNTFYLQMNSLKPEDTAVYYCAAEVLRLVGAAEYDYWGQGTQVTVSS
polyreactivity (PSR sort gate): low polyreactivity

QVQLVESGGGLVQAGGSLRLSCAASGSILNNYAMGWYRQAPGKERELVAAISSSGGTNYADSVKGRFTISRDNAKNTVYLQMYSLKPEDTAVYYCNADVLDGGYDYWGQGTQVTVSS
polyreactivity (PSR sort gate): low polyreactivity

QVQLVESGGGLVQAGGSLRLSCAASGRIFWGNAMGWYRQAPGKERELVAAISSSGGSTYYADSVKGRFTISRDNAKNTVYLQMNSLKPEDTAVYYCAARYPTYYYRYDYWGQGTQVTVSS
polyreactivity (PSR sort gate): high polyreactivity

QVQIVESGGGLVQAGGSLRLSCAASGRIFDYYTMGWYRQAPGKERELVASISDGGRTNYADSVKGRFTISRDNAKNTVYLQMNSLKPEDTAVYYCAADFAPVAFDYWGQGTQVTVSS
polyreactivity (PSR sort gate): low polyreactivity

QVQLVESGGGLVQAGGSLRLSCAASGRIFGVYAMGWYRQAPGKERELVAGINGGDSTYYADSVKGRFTISRDNAKNTVYLQMNSLKPEDTAVYYCAAEADESGSNYDYWGQGTQVTVSS
polyreactivity (PSR sort gate): low polyreactivity

QVQLVESGGGLVQAGGSLRLSCAASGNIFDIYAMGWYRQATGKERELVAAICSGGSTYYADSVKGRFTISRDNAKNTVYLQMISLKTEDTAVDYCAESRVGYYRYEYWGQGTQVTVSS
polyreactivity (PSR sort gate): low polyreactivity

QVQIVESGGGLVHAGGSLRLSCAASGRIFPDYAMGWYRQAPGKERELVATISYSGGNTNYADSVKGRFTISRDNAKNTVYLQMNSLKPEDTAVYYCNTDWYLPRYVLLGYFSGTEDYWGQGTQVTVSS
polyreactivity (PSR sort gate): low polyreactivity

QVQLVESGGGLVQAGGSLRLSCAASGSIFEQYPMGWYRQAPGKERELVAAISRRSGRTYYADSVKGRFTISRDNAKHTVYLQMHSLIPEDTAVYYCAASGIYFVQYNSWGQGTHVTVSS
polyreactivity (PSR sort gate): high polyreactivity

HVELVEAGGGVVQAGGSLRLSCAASGRIFRYYVMGWYRPAPGKEREFVASISGRGASTYYADSVKGRFTISRDNAKNTVYIKRNSLKPEDTAVYYCNADVWLLSYVPEYDYWGQGTQVTVSS
polyreactivity (PSR sort gate): low polyreactivity

HVQLVESGGGLVQAGGSLRLSCAASGSIFSENTMGWYRQAPGKEWELVAAISWSGGSTNYADSVKGRFTISRDNAKNTVYLQMNSLKPEDTAVYYCAKDVGSADPTYYYWGQGTQVTVSS
polyreactivity (PSR sort gate): low polyreactivity

QVQLVESGGGLVQAGGSLRLSCAASGGIFYYYTMGWYRQAPGKERELVAVISSSGSTYYADSVKGRFTISRDNAKNTVYLQMNSLKPEDTAVYYCNALGWYGDYDYWGQGTQVTVSS
polyreactivity (PSR sort gate): low polyreactivity

QVQLVESGGGIVQAGGSLRLSCAASGSTFYVNVMGRYRQAPGKERELVAGITIRDGATYYADSVKGRFTISRDNAKITVYLQMNSLNPEDTAVYYCARAGDGEYKRDYWGQGTQVTVSS
polyreactivity (PSR sort gate): low polyreactivity

QVHLVESGGRLVKAGGSLRLSCPASGYITTKYAMGWYRQAPGKEMELVAAIRYSGTSTYYADSVKGRFTISRDNATNTVYLQMNSLKPEDTAVYYCNTRRYVRTTKYDYWGQGTQVTVSS
polyreactivity (PSR sort gate): high polyreactivity

QVQLVDSGGGLVQAGGSLRLSCAASGNTFRIYAMAWYRQAPGKERELVAAISQSGGSTYYADSVKGRFTISRDNAKNTVYLQMNSLKPEDTAVYYCAATGARRKFYYWGQGTQVTVSS
polyreactivity (PSR sort gate): high polyreactivity

QVQLVESGGGLVQAGGSLRLSCAASGSTFDPYAMGWYRQAPGKERELVAAISRSGASTYADSVKGRFTISRDNAKNTVYLQMNSLKPEDTAVYYCAADSGYPYDYWGQGTQVTVSS
polyreactivity (PSR sort gate): low polyreactivity

QVQLVESGGGLVQAGGSLRLSCASSGGIFYRNAMGWYRQAPGKERELVAVITSSGGSTYYADSVKGRFTISRDNAKNTVYLQMNSLKPVDTAVYYCAAESVAAYYWGQGTQVTVSS
polyreactivity (PSR sort gate): high polyreactivity
